Source: publication PMC3618327, “Genetic and Biochemical Characterization of the MinC-FtsZ Interaction in Bacillus subtilis” (PLoS ONE, 2013)

T1: MinC-His6, wild-type Bacillus subtilis MinC (B. subtilis, UniProt Q01463 1-226)
T1 sequence (looked up): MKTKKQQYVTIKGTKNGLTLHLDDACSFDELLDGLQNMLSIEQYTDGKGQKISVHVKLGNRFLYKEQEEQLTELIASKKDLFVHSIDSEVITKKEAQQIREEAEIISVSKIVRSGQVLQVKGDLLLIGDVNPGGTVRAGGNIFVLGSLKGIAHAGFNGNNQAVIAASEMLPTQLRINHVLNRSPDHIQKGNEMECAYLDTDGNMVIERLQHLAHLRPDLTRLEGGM

B1: His6-FtsZ, wild-type Bacillus subtilis FtsZ (natural protein, B. subtilis, UniProt P17865 1-382, looked up)
chain: MLEFETNIDGLASIKVIGVGGGGNNAVNRMIENEVQGVEYIAVNTDAQALNLSKAEVKMQIGAKLTRGLGAGANPEVGKKAAEESKEQIEEALKGADMVFVTAGMGGGTGTGAAPVIAQIAKDLGALTVGVVTRPFTFEGRKRQLQAAGGISAMKEAVDTLIVIPNDRILEIVDKNTPMLEAFREADNVLRQGVQGISDLIATPGLINLDFADVKTIMSNKGSALMGIGIATGENRAAEAAKKAISSPLLEAAIDGAQGVLMNITGGTNLSLYEVQEAADIVASASDQDVNMIFGSVINENLKDEIVVTVIATGFIEQEKDVTKPQRPSLNQSIKTHNQSVPKREPKREEPQQQNTVSRHTSQPADDTLDIPTFLRNRNKRG
notes: FtsZ of Bacillus subtilis, the ftsZ gene cloned into pET28a; also called WT; FtsZ^WT; source: E. coli BL21(DE3)-RIL, purified (two-step ammonium sulfate and GTP+Ca2+ precipitation); not shown: His6, N-terminal, kept

How the values were obtained:
[1] = target: the molecule itself; assay: sedimentation of polymers; 7 µM FtsZ in Mes/NaOH 50 mM, MgCl2 10 mM, KCl 133 mM, DEAE-dextran 0.6 mg/mL, pH 6.5, GTP 2 mM, room temperature, 100.000 rpm 15 min; pellet and supernatant on SDS-PAGE
[2] = target: T1, MinC-His6, wild-type Bacillus subtilis …; assay: cell-based or functional assay
[3] = target: B1; assay: other fluorescence titration; intrinsic Trp fluorescence of 1 µM MinC Y44W with 0.5-3 µM FtsZ in solution; Tris/HCl 20 mM, KCl 100 mM, EDTA 5 mM, pH 7.5; excitation 295 nm, emission 320-360 nm; the interaction was inhibited by salt (1 M KCl); conditions: both partners purified

| Binder | binding result [1] | light scattering signal of FtsZ polymerization with MinC (7 µM FtsZ, 20 µM MinC) relative to the signal in the absence of MinC [2] [%] | Kd [3] [nM] |
| --- | --- | --- | --- |
| His6-FtsZ R376T (natural protein, B. subtilis, UniProt P17865 1-382, looked up, FtsZ of Bacillus subtilis, mutant in the C-terminal peptide (CTP); source: E. coli BL21(DE3)-RIL, purified (two-step ammonium sulfate and GTP+Ca2+ precipitation); not shown: His6, N-terminal, kept) MLEFETNIDGLASIKVIGVGGGGNNAVNRMIENEVQGVEYIAVNTDAQALNLSKAEVKMQIGAKLTRGLGAGANPEVGKKAAEESKEQIEEALKGADMVFVTAGMGGGTGTGAAPVIAQIAKDLGALTVGVVTRPFTFEGRKRQLQAAGGISAMKEAVDTLIVIPNDRILEIVDKNTPMLEAFREADNVLRQGVQGISDLIATPGLINLDFADVKTIMSNKGSALMGIGIATGENRAAEAAKKAISSPLLEAAIDGAQGVLMNITGGTNLSLYEVQEAADIVASASDQDVNMIFGSVINENLKDEIVVTVIATGFIEQEKDVTKPQRPSLNQSIKTHNQSVPKREPKREEPQQQNTVSRHTSQPADDTLDIPTFLTNRNKRG | binds | 70 | – |
| His6-FtsZ D287V (natural protein, B. subtilis, UniProt P17865 1-382, looked up, FtsZ of Bacillus subtilis, mutant from the error-prone PCR library; source: E. coli BL21(DE3)-RIL, purified (two-step ammonium sulfate and GTP+Ca2+ precipitation); not shown: His6, N-terminal, kept) MLEFETNIDGLASIKVIGVGGGGNNAVNRMIENEVQGVEYIAVNTDAQALNLSKAEVKMQIGAKLTRGLGAGANPEVGKKAAEESKEQIEEALKGADMVFVTAGMGGGTGTGAAPVIAQIAKDLGALTVGVVTRPFTFEGRKRQLQAAGGISAMKEAVDTLIVIPNDRILEIVDKNTPMLEAFREADNVLRQGVQGISDLIATPGLINLDFADVKTIMSNKGSALMGIGIATGENRAAEAAKKAISSPLLEAAIDGAQGVLMNITGGTNLSLYEVQEAADIVASASVQDVNMIFGSVINENLKDEIVVTVIATGFIEQEKDVTKPQRPSLNQSIKTHNQSVPKREPKREEPQQQNTVSRHTSQPADDTLDIPTFLRNRNKRG | binds | – | – |
| B1 | binds | – | – |
| His6-FtsZ T111A (natural protein, B. subtilis, UniProt P17865 1-382, looked up, FtsZ of Bacillus subtilis, promiscuous mutant in the N-terminal subdomain; source: E. coli BL21(DE3)-RIL, purified (two-step ammonium sulfate and GTP+Ca2+ precipitation); not shown: His6, N-terminal, kept) MLEFETNIDGLASIKVIGVGGGGNNAVNRMIENEVQGVEYIAVNTDAQALNLSKAEVKMQIGAKLTRGLGAGANPEVGKKAAEESKEQIEEALKGADMVFVTAGMGGGTGAGAAPVIAQIAKDLGALTVGVVTRPFTFEGRKRQLQAAGGISAMKEAVDTLIVIPNDRILEIVDKNTPMLEAFREADNVLRQGVQGISDLIATPGLINLDFADVKTIMSNKGSALMGIGIATGENRAAEAAKKAISSPLLEAAIDGAQGVLMNITGGTNLSLYEVQEAADIVASASDQDVNMIFGSVINENLKDEIVVTVIATGFIEQEKDVTKPQRPSLNQSIKTHNQSVPKREPKREEPQQQNTVSRHTSQPADDTLDIPTFLRNRNKRG | binds | – | – |
| His6-FtsZ K243R (natural protein, B. subtilis, UniProt P17865 1-382, looked up, FtsZ of Bacillus subtilis, mutant from the error-prone PCR library; source: E. coli BL21(DE3)-RIL, purified (two-step ammonium sulfate and GTP+Ca2+ precipitation); not shown: His6, N-terminal, kept) MLEFETNIDGLASIKVIGVGGGGNNAVNRMIENEVQGVEYIAVNTDAQALNLSKAEVKMQIGAKLTRGLGAGANPEVGKKAAEESKEQIEEALKGADMVFVTAGMGGGTGTGAAPVIAQIAKDLGALTVGVVTRPFTFEGRKRQLQAAGGISAMKEAVDTLIVIPNDRILEIVDKNTPMLEAFREADNVLRQGVQGISDLIATPGLINLDFADVKTIMSNKGSALMGIGIATGENRAAEAAKRAISSPLLEAAIDGAQGVLMNITGGTNLSLYEVQEAADIVASASDQDVNMIFGSVINENLKDEIVVTVIATGFIEQEKDVTKPQRPSLNQSIKTHNQSVPKREPKREEPQQQNTVSRHTSQPADDTLDIPTFLRNRNKRG | binds | – | – |
| MinC Y44W (tryptophan mutant of Bacillus subtilis MinC) (natural protein, B. subtilis, UniProt Q01463 1-226, looked up, MinC of Bacillus subtilis with tryptophan at position 44 of the N-terminal domain; The methods name both His6-MinC (pET28a) and MinC-His6 (pET24b); also called tryptophan mutant MinC Y44W) MKTKKQQYVTIKGTKNGLTLHLDDACSFDELLDGLQNMLSIEQWTDGKGQKISVHVKLGNRFLYKEQEEQLTELIASKKDLFVHSIDSEVITKKEAQQIREEAEIISVSKIVRSGQVLQVKGDLLLIGDVNPGGTVRAGGNIFVLGSLKGIAHAGFNGNNQAVIAASEMLPTQLRINHVLNRSPDHIQKGNEMECAYLDTDGNMVIERLQHLAHLRPDLTRLEGGM | – | – | ~1000 |
